Test: label from the status in PepcDB records

Sequence | protein production
MIEKIVKEMTLKEKVGQLNQHLYGWQCYQKVNGKYELTDLFKEHVKEYGGVGAIYGILRADAWSQINRENGISREDSKIVITMIQEYIKKHSRFEIPALISEECVHGHMALGAPVFPTNLAMGMTWNPDLMERITHNVSQELAAKGGNLALFTGFDVLRDPRWGRSEECFSEDAYLTSCMTSAAVHGFQKEKNGVAVVVKHLCAQGGCVGGHNSDAALIGPRELREIHLPPVKAAIDAGAKAVMAAYNEIDGIPCHINKALLFETLRKEYDFSGIVMADGCALDRLLLLDDDILKVGSLALKAGVDLSLWDNVYLRLDEAIKQGYLTEEELDQAVLRVLRLKEELGLWEELNTYSLPEASDLLLQAARECQVLLKNNDSLLPLSSKQKIAVIGPNANHYLNQLGDYTAYQNKSDIVTVYDGICQKTEISPIYVQGCSIRGRKFDIEPALVAAKAADIVILVLGGNSTRLYQDTFENNGAVKANQENQMNCGENIDLASLELEGYQNELLLALKEVNPHIVTVLIQGRPHVINTVLKHSQAVLASFYPGSRGGEGIADVLFGDYNPSGHLSVSIPQHVGQLPCYYNHKHNGAQKDYVDMPGEALLPFGYGLSYSQFIYRDIKVPKAIKITDLLENGIDLQLEIYNNSTYDGEDVIQVYLKDHQASVVSRVIELKAFNKVKIQAYQSKQISIHLTSDAFAIWNYEMKYLVEPGDVSICIGVDSKHYQEFKLTLVK | failed
MTNSKQKLVLASGSPRRLELLHQIGIEPARLMPMDIDETPVKLEHPRTLCRRLSQQKAEAAQAALKSEQAWKDAYVLGSDTVVAVGRRIVGKAEYTEEASAALHLLSGRSHWVYTGICLVTPDGKIRQKVAETKVRFKRLSTREIDAYIASGQWRGKAGAYGIQGIAGAFVQKLTGSYTNVVGLPLYETMSLLSGEGFEVTSGWLEG | failed
SQGLDTLLRDLTDRAVVQVPGAVACSVTVRRADRLMTLAGSTGLPSGLDLRQYENGSGPCVDAAESGDAQYCADLAEETRWPAYTEYALATGVRCVLALPLPIEGETGAALNLYGLVPGSLVQGLDAARAFAERAADAVNEALRIERRQASAADVRTALLSRSVIDQAVGMLMARERI | not failed
MLSTMQPTLATNYTTIPCYQLCYQHYATNLAPIIRSTGSMILNYAIIRLSLQQNLCYRKTCVRDTAQYDPPCNKIYTTGLCCSRTYKTLQAFFLDMSETPQKLREEAVKYFNETLDLMQKGENAEALESLRKAESSAQKAEDGPILFHILKVRGQLLQSLDMLEEALETYAFSLIMSEKLLSEDPENKLYTDTLHLNLNNLGNLGNAFQRMGNFPSSKQAYEIGIEICQNLLNSYPENEFYRMYAGNTLNNLGELLFTMGEPEEAKEKYEEALKTYSLLLKNSPEKPEYLSDTAMTLNNLGNLYSEKGQEAEAKENFEKALEILKKRSEKEPGNEKLREEIRITQEKLEAI | failed
MTFSAPAPTQLDPVVRHLYVHVPFCPSICPYCDFHVLTRQAGLVERYLERLEQEAAELAAAYAVDLDTVYLGGGTPSFLRDHELRALVESVQRHLGWGRAENTLEINPGTVSTERAALWRSLGFDRASVGVQSLDDATLKFLGRRHDARQARDAVSRLIAQDFRVSGDLITAVPGQPLDSDIHGLVELGVGHVSAYTLTIEPGTEFARRGVQVDEDAEREGFERTEELLAGHGFSRYEVSNYARAGQESRHNLSYWQGKTYLGLGPGAAGHYPVPTPGADALTLRRTNPHLHDWLVGQQGETLLVDPHEYVTDALFMGLRLRRGLDLADLTRRSGVDVAGRYGLVIERQVRLGLLEHSGTNLRATAQGWWVLNRIVREFMEVDAAETA | failed
SQELTLSPGPAKLTPTLDPTHRMELILSTSPAELTLDPACQPKLPLDSTCQPEMTFNPGPTELTLDPEHQPEETPAPSLAELTLEPVHRRPELLDACADLINDQWPRSRTSRLHSLGQSSDAFPLCLMLLSPHPTLEAAPVVVGHARLSRVLNQPQSLLVETVVVARALRGRGFGRRLMEGLEVFARARGFRKLHLTTHDQVHFYTHLGYQLGEPVQGLVFTSRRLPATLLNAFPTAPSPRPPRKAPNLTAQAAPRGPKGPPLPPPPPLPECLTISPPVPSGPPSKSLLETQYQNVRGRPIFWMEKDI | not failed
MSKVFICAAIPDEQAIKEEGAVAVATAIEAGDERRARAKFHWQFLEHYPAAQDCAYKFLVCEDKPGIPRPALDSWDAEYMQENRWDEGAASFVPVETESDPMNVAFDKLAPEVQNAVMVKFDTCENITVDMVISAQELLQEDMATFDGHIVEALMKMPEVNAMYPELKLHAIGWVKHKCKPGAKWPEIQAEMRIWKKRREGERKETGKYTSVVDLARARVHRQHTENSAEKIPPVTAVIRREYKQTWKTLDDELAYALWPGDVDAGNIDGSIHRWAKNEVIDNDREDWKRISASMRKQPDALRYDRQTIFGLVRERPIDIHKDPVALNKYITEYLTTKGVFEDEGTNQSATDTLSSPVPETDAVETAIPDNEKTECKVEVEPSVEREGPFYFLFTDKDGEKYGRANKLSGLDKALAAGATEITKEEYFARKNGTYTGLPQNANTAQNSEQPEPVKVTADEVKKIMQAANISQPDANQLLAASRGEFVAGISDPNDPKWVKGIETRDSVNQNQQETEQNDQKAEQNSPNTQQNEPETKQPEPVAQQEPEKVCTACGQTGGGNCPDCGAVMGDATYQETFDEEYQVEVQEDDPEEMEGAEHPHKENTDGNQHHDSDNETGETADHSIKVNGHQEITSTSRTCDHLMIDLETMGKNPDAPIISIGAIFFDPQTGDMGPEFSKTIDLETAGGVIDRDTIKWWLKQSREAQSAIMTDEIPLDDALLQLREFIDENSGEFFVQVWGNGANFDNTILRRSYERQGIPCPWRYYNDRDVRTIVELGKAIDFDARTAIPFEGERHNALDDARYQAKYVSVIWQKLIPNQADF | failed
RTVAQNASETTVSYDTDTAVLSEADVLRIALSENATVKVADMDVRKQEYARRAARADLFPKVDLNGVYSHTLKKQVLYIDMPGFSSSEGIEMGRTHNTQGGVNVSMPLVSAQLWKSIAMTGEQLDLALEKARSSRIDLVAEVKKAYLSVLLAEDSYGVFKRSYDNALANYKNISDKFDRGLVAEYDKIRANVQVRNIEPNLLQAQNSVALALWQLKVLMSMEVETPIRLSGSLSDYKEQVYTGYFAADTLISNNSSLRQLDIQRRLAVSADKLNKYSFLPTLNLGGQYTYSLNSNDIKFWGEGQR | not failed
MNPTAGKTSATGEQMASTSADTYSPSRDDFAAMLDESFAGGNLQESSVVKGKVVAIEKDMAVIDVGLKTEGRVALREFSGPGRDSEIKVGDEVEVFLDRIENALGEAVLSRDKARREESWGKLEKAFQNNEKVNGVIFNQVKGGFTVDLDGAVAFLPRSQVDIRPIRDVAPLMNNSQPFQILKMDRRRGNIVVSRRTVLEETRAEQRQELVQNLEEGQVIDGVVKNITDYGAFVDLGGIDGLLHVTDIAWRRVNHPTEVLSIGQTVKVKIIKINHETHRISLGMKQLLDDPWQGIEAKYPLGARFTGRVTNITDYGAFVELEPGIEGLIHVSEMSWTKKNMHPGKIVSTSQEVEVQVLEVDSVKRRISLGLKQTMRNPWEVFVEGHPTGSVVEGEVKNKTEFGLFLGLEGDVDGMVHLSDLDWKLPGEQVIDNYKKGDMVKAVVLDVDVEKERISLGIKQLEGDPFAEPGDVKKGAVVTCEVLEVKESGIEVKIAGTDFTTFIKRSELARDRNDQRAERFAVGEKVDARVIQFDKKARKVQVSIKALEVAEEKEAIAQYGSSDSGATLGDILGTALKNRDSK | failed
AGSMEDIPVEEAVLTGVATDNSEAKITVLGIPDSPGSASAVFRALADAEINIDTVLQNISSLEDNRTDITFTCPRADGPHAMELLRNLQAKNDWQNVLYDDQIGKVSLVGAGMKSHPGVTAEFCEALRDAGVNIELISTSEIRISVLIRESDVDVAARAIHEKFELGGETEAIVYAGTGR | failed
MSKVALFAGGDLSYISRDFDYFVGIDRGSLFLLENGLPLNMAVGDFDSVSQKAFTDIKEKAELFITAHPEKNDTDTELALKEVFARFPEAEVTIFGAFGGRMDHLLSNIFLPSDPGIAPFMAQIALRDQQNMITYRPAGQHLIHQEEGMTYVAFMAEGEADLTITGAKFELTQDNFFKKKIYSSNAFIHQPITVSLPSGYLIIIQSKDWSLEHHHHHH | not failed

Source: a protein production outcome set (Wang et al. 2014)
